T1: Full-length human IKK2 (human, UniProt O14920 1-756)
T1 sequence (looked up): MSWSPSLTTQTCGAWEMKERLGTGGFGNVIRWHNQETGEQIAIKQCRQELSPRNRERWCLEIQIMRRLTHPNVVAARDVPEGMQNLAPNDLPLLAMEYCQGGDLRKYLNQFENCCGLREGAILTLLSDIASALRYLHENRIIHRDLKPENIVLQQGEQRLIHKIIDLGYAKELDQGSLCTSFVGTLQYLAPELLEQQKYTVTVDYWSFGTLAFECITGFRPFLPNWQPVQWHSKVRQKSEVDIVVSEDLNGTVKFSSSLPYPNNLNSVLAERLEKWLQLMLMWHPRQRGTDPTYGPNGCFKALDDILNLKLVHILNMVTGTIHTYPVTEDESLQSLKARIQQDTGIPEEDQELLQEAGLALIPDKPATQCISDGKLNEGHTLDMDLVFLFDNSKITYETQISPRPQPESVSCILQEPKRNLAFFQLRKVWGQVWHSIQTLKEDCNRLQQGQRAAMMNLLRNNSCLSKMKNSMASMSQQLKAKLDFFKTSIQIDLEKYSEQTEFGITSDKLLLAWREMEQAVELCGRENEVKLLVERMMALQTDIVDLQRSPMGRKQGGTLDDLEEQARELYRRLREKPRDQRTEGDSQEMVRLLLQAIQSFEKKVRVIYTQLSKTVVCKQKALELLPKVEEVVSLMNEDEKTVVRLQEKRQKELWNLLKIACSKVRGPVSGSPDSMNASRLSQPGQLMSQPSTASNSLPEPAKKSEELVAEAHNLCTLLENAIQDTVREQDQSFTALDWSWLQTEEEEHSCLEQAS

B1: NEMO^1–210 (domain or fragment, human, UniProt Q9Y6K9 1-210, looked up)
chain: MNRHLWKSQLCEMVQPSGGPAADQDVLGEESPLGKPAMLHLPSEQGAPETLQRCLEENQELRDAIRQSNQILRERCEELLHFQASQREEKEFLMCKFQEARKLVERLGLEKLDLKRQKEQALREVEHLKRCQQQMAEDKASVKAQVTSLLGELQESQSRLEAATKECQALEGRARAASEQARQLESEREALQQQHSVQVDQLRMQGQSVE
B2: NEMO^1–280 (domain or fragment, human, UniProt Q9Y6K9 1-280, looked up)
chain: MNRHLWKSQLCEMVQPSGGPAADQDVLGEESPLGKPAMLHLPSEQGAPETLQRCLEENQELRDAIRQSNQILRERCEELLHFQASQREEKEFLMCKFQEARKLVERLGLEKLDLKRQKEQALREVEHLKRCQQQMAEDKASVKAQVTSLLGELQESQSRLEAATKECQALEGRARAASEQARQLESEREALQQQHSVQVDQLRMQGQSVEAALRMERQAASEEKRKLAQLQVAYHQLFQEYDNHIKSSVVGSERKRGMQLEDLKQQLQQAEEALVAKQEV
B3: NEMO^111–250 (domain or fragment, human, UniProt Q9Y6K9 111-250, looked up)
chain: KLDLKRQKEQALREVEHLKRCQQQMAEDKASVKAQVTSLLGELQESQSRLEAATKECQALEGRARAASEQARQLESEREALQQQHSVQVDQLRMQGQSVEAALRMERQAASEEKRKLAQLQVAYHQLFQEYDNHIKSSVV
B4: NEMO^1–250 (domain or fragment, human, UniProt Q9Y6K9 1-250, looked up)
chain: MNRHLWKSQLCEMVQPSGGPAADQDVLGEESPLGKPAMLHLPSEQGAPETLQRCLEENQELRDAIRQSNQILRERCEELLHFQASQREEKEFLMCKFQEARKLVERLGLEKLDLKRQKEQALREVEHLKRCQQQMAEDKASVKAQVTSLLGELQESQSRLEAATKECQALEGRARAASEQARQLESEREALQQQHSVQVDQLRMQGQSVEAALRMERQAASEEKRKLAQLQVAYHQLFQEYDNHIKSSVV
B5: NEMO^1–130 (domain or fragment, human, UniProt Q9Y6K9 1-130, looked up)
chain: MNRHLWKSQLCEMVQPSGGPAADQDVLGEESPLGKPAMLHLPSEQGAPETLQRCLEENQELRDAIRQSNQILRERCEELLHFQASQREEKEFLMCKFQEARKLVERLGLEKLDLKRQKEQALREVEHLKR
B6: NEMO^1–110 (domain or fragment, human, UniProt Q9Y6K9 1-110, looked up)
chain: MNRHLWKSQLCEMVQPSGGPAADQDVLGEESPLGKPAMLHLPSEQGAPETLQRCLEENQELRDAIRQSNQILRERCEELLHFQASQREEKEFLMCKFQEARKLVERLGLE
B7: NEMO^250–365 (domain or fragment, human, UniProt Q9Y6K9 250-365, looked up)
chain: VGSERKRGMQLEDLKQQLQQAEEALVAKQEVIDKLKEEAEQHKIVMETVPVLKAQADIYKADFQAERQAREKLAEKKELLQEQLEQLQREYSKLKASCQESARIEDMRKRHVEVSQ

Biological target: the molecule itself
Experiment: SEC-MALS

Question: Does B1 bind?
Answer: binds

Question: Does B2 bind?
Answer: binds

Question: With B3 as the binder, how does the “stoichiometry N” value read?
Answer: 2

Question: For B4, which “stoichiometry N” value is on record?
Answer: 2

Question: For B5, which “stoichiometry N” value is on record?
Answer: 2

Question: For B6, which “stoichiometry N” value is on record?
Answer: 2

Question: With B7 as the binder, how does the “stoichiometry N” value read?
Answer: 2

biological target: T1, Full-length human IKK2; experiment: SEC-MALS

Question: Does B1 bind?
Answer: binds

Question: Does B2 bind?
Answer: binds

Question: Does B4 bind?
Answer: binds

Question: Does B5 bind?
Answer: binds
